Assay results from publication PMC7958859, “Molecular and Pharmacological Characterization of the Interaction between Human Geranylgeranyltransferase Type I and Ras-Related Protein Rap1B” (International Journal of Molecular Sciences, 2021).

Molecular target: human GGTase-I (LgBiT-GGTase-I-β-subunit with co-transfected untagged FTase α-subunit) (human, UniProt P53609-1 2-377; P49354-1 1-379)
Assay: split reporter (BiFC, NanoBiT); living HEK293 cells stably expressing the human A2BAR, transient co-transfection (50 ng DNA/well of each LgBiT and SmBiT plasmid, 100 ng/well untagged FTase α, ΔCQLL 50–200 ng/well); NanoGlo live-cell substrate 24 h after transfection, luminescence at 25 °C every 30 s, maxima plotted as RLU; also after treatment with vehicle (DMSO), adenosine, NECA, BAY60-6583, CGS-21680, forskolin, …
Conditions: partners not purified

fold lower luminescence than with Rap1B WT (50 ng DNA/well each): ~20 fold
fold lower luminescence than with Rap1B WT (ΔCQLL 200 ng DNA/well, WT 50 ng DNA/well): ~10 fold
B1: SmBiT-Rap1B ΔCQLL (domain or fragment)
chain: REYKLVVLGSGGVGKSALTVQFVQGIFVEKYDPTIEDSYRKQVEVDAQQCMLEILDTAGTEQFTAMRDLYMKNGQGFALVYSITAQSTFNDLQDLREQILRVKDTDDVPMILVGNKCDLEDERVVGKEQGQNLARQWNNCAFLESSAKSKINVNEIFYDLVRQINRKTPVPGKARKKSS
notes: human Rap1B lacking the C-terminal CAAX motif CQLL (from C181 to the end); the forward primer begins at codon 2, the reverse primer ends with Lys-Lys-Ser-Ser and a stop codon; Expression about 5-fold lower than SmBiT-Rap1B WT by Western blot; Glycine/serine linker and Ala-Ile-Ala between SmBiT and Rap1B; also called complete CAAX motif deletion mutant; source: HEK293 stably expressing the human …
